Experimental data from paper PMC4751086 (2016).

What was measured:
HD-PTP(1–361;T145K) = target: T1, HD-PTP(1–361;T145K) (human, UniProt Q9H3S7 1-361, T145K); experiment: ITC
T1 sequence: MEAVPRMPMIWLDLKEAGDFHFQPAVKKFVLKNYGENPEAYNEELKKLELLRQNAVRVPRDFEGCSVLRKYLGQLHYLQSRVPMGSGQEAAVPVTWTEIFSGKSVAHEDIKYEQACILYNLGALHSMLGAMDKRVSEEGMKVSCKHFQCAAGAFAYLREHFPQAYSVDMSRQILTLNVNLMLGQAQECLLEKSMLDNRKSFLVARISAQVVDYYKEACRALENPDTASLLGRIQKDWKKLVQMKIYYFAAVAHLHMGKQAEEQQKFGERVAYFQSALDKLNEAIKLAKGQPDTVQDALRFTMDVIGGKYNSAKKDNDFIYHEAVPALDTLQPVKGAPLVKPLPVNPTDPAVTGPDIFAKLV

HD-PTP(1–361;T145R) = target: T2, HD-PTP(1–361;T145R) (human, UniProt Q9H3S7 1-361, T145R); experiment: ITC
T2 sequence: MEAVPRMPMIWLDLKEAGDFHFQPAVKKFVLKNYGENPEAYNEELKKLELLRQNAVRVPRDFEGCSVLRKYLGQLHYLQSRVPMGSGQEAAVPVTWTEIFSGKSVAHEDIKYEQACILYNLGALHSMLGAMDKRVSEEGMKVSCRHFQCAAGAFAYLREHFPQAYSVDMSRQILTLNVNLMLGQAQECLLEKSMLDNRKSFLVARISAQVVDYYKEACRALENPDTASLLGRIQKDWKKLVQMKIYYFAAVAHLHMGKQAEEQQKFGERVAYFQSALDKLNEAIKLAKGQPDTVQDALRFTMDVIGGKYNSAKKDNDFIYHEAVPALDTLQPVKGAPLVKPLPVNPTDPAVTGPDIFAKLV

Binder: KEEEDDDMKELENWAGSM [CHMP4B(207–224)]
- Kd (HD-PTP(1–361;T145K)): 4.02 µM
- Kd (HD-PTP(1–361;T145R)): 3.89 µM
